The record followed here is patent US20200165351A1 (University of California, published 2020).

In test [1] the target is bacterially produced human N-cadherin ECD4 with ECD3 overhang (human) (UniProt P19022). The test can be described thus: ELISA, saturation binding on immobilized antigen, half-maximal binding. (ELISA stands for enzyme-linked immunosorbent assay.)
The target of test [2] is T1, recombinant human N-cadherin ECD1-3-Fc (human; murine, UniProt P19022 160-497).
T1 construct: range 160-497; Cloned into pSECTag2A(AgeI); produced in 293-F cells, Protein A purified; also called Ncad-ECD1-3-Fc; not shown: murine gamma 2a Fc region
T1 sequence (looked up): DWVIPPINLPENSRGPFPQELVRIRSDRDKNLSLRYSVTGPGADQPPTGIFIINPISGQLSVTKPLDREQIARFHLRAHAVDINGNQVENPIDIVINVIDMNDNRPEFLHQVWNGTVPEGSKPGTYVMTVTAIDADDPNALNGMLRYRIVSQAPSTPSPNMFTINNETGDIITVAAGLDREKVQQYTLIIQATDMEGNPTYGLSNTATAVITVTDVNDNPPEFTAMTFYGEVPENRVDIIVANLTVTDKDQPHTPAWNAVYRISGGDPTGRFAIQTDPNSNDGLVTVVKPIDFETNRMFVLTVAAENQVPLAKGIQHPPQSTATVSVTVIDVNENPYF
The test can be described thus: ELISA, saturation binding on immobilized antigen. On the procedure: Saturation binding of the humanized scFv fragments was performed on immobilized recombinant human Ncad-ECD1-3-Fc in ELISA (FIG. 8) confirming successful humanization and retained antigen specificity.

In test [3] the target is T2, bacterially produced N-cadherin ECD1-3 (UniProt P19022 160-497, limits assumed).
T2 construct: domain: ECD1-3; Antigen against which hybridoma 1H7 was selected; also called ECD1-3 (bacterially produced)
T2 sequence (looked up): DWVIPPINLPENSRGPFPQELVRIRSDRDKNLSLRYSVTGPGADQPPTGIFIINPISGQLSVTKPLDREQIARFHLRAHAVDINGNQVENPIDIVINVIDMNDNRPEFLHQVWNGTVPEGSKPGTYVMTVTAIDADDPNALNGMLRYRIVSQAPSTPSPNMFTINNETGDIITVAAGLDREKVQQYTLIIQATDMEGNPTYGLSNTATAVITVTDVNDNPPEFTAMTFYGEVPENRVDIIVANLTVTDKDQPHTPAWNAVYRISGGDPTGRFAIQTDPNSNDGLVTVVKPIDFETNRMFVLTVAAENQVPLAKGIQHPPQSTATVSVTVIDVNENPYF
Put plainly: ELISA, saturation binding on immobilized antigen, half-maximal binding. The method, then: FIG. 11 depicts saturation binding of full length IgGs to recombinant antigen in ELISA. Bacterially produced antigens ECD4 and ECD1-3 were immobilized. Bound antibodies were detected with goat anti-human Fcg-AP or goat anti-mouse Fcg-AP respectively.
Saturation binding of the humanized full-length antibodies in comparison to the parental murine antibodies was tested in ELISA.

B1: hu2A9 IgG (antibody, V domains shown)
VH: QVQLVQSGAEVKKPGASVKLSCKASGYTFTSYWMQWVRQAPGQGLEWIGAIYPGDGETTYTQKFKGRVTMTADTSISTAYMELSRLRSDDTAVYYCAKGDGYWAMDYWGQGTLVTVSS
VL: DVVMTQSPLSLPVTLGQPASISCRSSQSLVHSNGNTYLHWYQQRPGQSPRLLIYKVSNRFSGVPDRFSGSGSGTDFTLKISRVEAEDVGVYYCSQSTHVPLTFGAGTKLELK
One may read the Kd as the concentration at which binding is half-saturated. A low value points to a tighter complex. Regarding B1, in test [1], the dissociation constant (Kd) was determined as 0.5 nM.

B2: humanized 2A9 scFv (scFv)
scFv: QVQLVQSGAEVKKPGASVKLSCKASGYTFTSYWMQWVRQAPGQGLEWIGAIYPGDGETTYTQKFKGRVTMTADTSISTAYMELSRLRSDDTAVYYCAKGDGYWAMDYWGQGTLVTVSSGGGGSGGGGSGGGGSDVVMTQSPLSLPVTLGQPASISCRSSQSLVHSNGNTYLHWYQQRPGQSPRLLIYKVSNRFSGVPDRFSGSGSGTDFTLKISRVEAEDVGVYYCSQSTHVPLTFGAGTKLELK
notes: VH-(G4S)3-VL scFv secreted with the Ig kappa leader; also called hu2A9 scFv; scFv hu2A9; not shown: C-terminal tag from vector pSECTag2A (His-tag; detected through c-Myc)
For B2, the binding result in test [2] was “binds”.

B3: hu1H7 IgG (antibody, V domains shown)
VH: QVQLVQSGAEVKKPGASVKVSCKASGFTFTDYLIQWVRQAPGQGLEWIGWIYPGSGSIKYNEKFQGRVTMTADTSINTAYMELSRLRSDDTAVYFCARRGDWGGFFDYWGQGTLVTVSS
VL: EIVLTQSPATLSLSPGERATLSCTASSSVSSSYLHWYQQKPGLAPRLWIFSTSNLASGIPDRFSGSGSGTDFTLTISRLEPEDFAVYYCHQYHRSLTFGGGTKVEIK
notes: also called h1H7; humanized full-length antibody hu1H7
For B3, the Kd in test [3] amounted to 0.4 nM.
